Laboratory results published in doi:10.1101/781922 (bioRxiv, 2019).

Target: T1, Arabidopsis TIR1, coexpressed with AtASK1 (His10-eGFP-FLAG-(TEV)-AtTIR1 and His10-(TEV)-AtASK1) (Arabidopsis, UniProt Q570C0;Q39255)
T1 sequence 1: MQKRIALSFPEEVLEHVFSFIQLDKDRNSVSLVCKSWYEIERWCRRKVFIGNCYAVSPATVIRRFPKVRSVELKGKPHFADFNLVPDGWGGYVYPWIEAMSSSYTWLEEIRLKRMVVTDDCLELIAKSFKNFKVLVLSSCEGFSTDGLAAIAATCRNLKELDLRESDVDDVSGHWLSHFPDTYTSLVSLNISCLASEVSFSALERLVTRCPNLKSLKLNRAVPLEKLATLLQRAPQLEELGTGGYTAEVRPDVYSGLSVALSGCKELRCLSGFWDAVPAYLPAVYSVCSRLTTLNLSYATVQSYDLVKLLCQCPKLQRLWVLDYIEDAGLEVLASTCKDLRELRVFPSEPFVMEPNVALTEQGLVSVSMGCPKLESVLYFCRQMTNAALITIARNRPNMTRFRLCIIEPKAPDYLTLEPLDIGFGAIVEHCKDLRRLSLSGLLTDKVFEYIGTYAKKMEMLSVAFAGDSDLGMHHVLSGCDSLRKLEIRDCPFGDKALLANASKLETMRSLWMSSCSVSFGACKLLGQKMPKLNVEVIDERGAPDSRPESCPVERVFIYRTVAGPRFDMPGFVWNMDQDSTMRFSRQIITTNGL
T1 sequence 2: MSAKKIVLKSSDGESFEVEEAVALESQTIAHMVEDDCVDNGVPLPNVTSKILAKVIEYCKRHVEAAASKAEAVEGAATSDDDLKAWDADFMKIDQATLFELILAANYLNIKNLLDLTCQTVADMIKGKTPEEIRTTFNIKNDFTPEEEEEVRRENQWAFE
Assay: NMR titration

B1: AXR3 DI/DII (N-terminal half, domains I and II, of the Aux/IAA protein AXR3/IAA17) (domain or fragment)
chain: MMGSVELNLRETELCLGLPGGDTVAPVTGNKRGFSETVDLKLNLNNEPANKEGSTTHDVVTFDSKEKSACPKDPAKPPAKAQVVGWPPVRSYRKNVMVSCQ
B1: binds.
